Source: patent publication US20050282743A1, “Molecular interactions in cells” (Arbor Vita Corporation, priority 2001, published 2005)

B1: CDW125 (modified) (peptide)
peptide: EVIGYIEKPGVETLEDSVF
modifications: not checked
B2: Clasp-2 (peptide)
peptide: ISGTPTSTMVHGMTSSSSVV
modifications: not checked
B3: glutamate transporter 3 (peptide)
peptide: NGGFAVDKSDTISFTQTSQF
modifications: not checked
B4: CX43 (connexin 43) (peptide)
peptide: PSSRASSRASSRPRPDDLEI
modifications: not checked
B5: GLUR2 (glutamate receptor 2-modified) (peptide)
peptide: GGGGGSGGGGGSGIESVKI
modifications: not checked
B6: RGS12 (regulator of G-protein signaling 12 (peptide)
peptide: GPVPGEPAKPKTSAHHATFV
modifications: not checked

Tests used:
Assay in all cases: G' assay
[1] = target: T1, GST-ENIGMA PDZ domain 1 (Homo sapiens (Human)), Q9NR12
T1 chain: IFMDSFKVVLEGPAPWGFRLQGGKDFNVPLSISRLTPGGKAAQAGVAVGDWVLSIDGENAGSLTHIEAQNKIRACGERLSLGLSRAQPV

[2] = target: T2, GST-APXL-1 PDZ domain 1 (Homo sapiens (Human)), Q13796
T2 chain: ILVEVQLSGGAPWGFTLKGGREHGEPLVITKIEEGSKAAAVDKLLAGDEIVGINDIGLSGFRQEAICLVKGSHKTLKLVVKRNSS

[3] = target: GST-PSD95 PDZ domains 1, 2, 3 (Homo sapiens), P78352
GST-PSD95 PDZ domains 1, 2, 3 (Homo sapiens), P78352, sequence (P78352 62-395): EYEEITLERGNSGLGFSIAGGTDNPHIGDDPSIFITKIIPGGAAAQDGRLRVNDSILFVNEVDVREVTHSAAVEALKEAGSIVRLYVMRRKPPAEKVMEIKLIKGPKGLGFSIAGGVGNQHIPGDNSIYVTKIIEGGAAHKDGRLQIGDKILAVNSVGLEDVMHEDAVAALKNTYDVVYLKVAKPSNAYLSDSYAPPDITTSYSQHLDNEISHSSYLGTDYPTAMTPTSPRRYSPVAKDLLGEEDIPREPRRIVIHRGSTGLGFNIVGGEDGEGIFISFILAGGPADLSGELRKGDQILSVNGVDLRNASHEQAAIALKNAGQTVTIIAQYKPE

[4] = target: T3, GST-AIPC PDZ domain 1 (Homo sapiens (Human)), O15018
T3 chain: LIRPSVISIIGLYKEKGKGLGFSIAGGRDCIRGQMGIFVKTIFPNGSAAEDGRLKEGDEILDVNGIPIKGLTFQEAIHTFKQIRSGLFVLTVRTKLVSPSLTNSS

[5] = target: T4, GST-DLG1 PDZ domain 2 (Homo sapiens), Q12959
T4 chain: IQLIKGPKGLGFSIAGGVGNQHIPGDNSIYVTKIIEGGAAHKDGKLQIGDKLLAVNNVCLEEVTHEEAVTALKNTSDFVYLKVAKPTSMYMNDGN

[6] = target: T5, GST-NeDLG PDZ domain 2 (Rattus norvegicus (Rat)), Q62936
T5 chain: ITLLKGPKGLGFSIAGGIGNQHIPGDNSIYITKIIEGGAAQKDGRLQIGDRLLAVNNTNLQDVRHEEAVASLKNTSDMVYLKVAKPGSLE

[7] = target: GST-BAI-1 Associated Protein PDZ domain 2 (Mus musculus (Mouse)), Q6RHR9
GST-BAI-1 Associated Protein PDZ domain 2 (Mus musculus (Mouse)), Q6RHR9, sequence (Q6RHR9 455-558): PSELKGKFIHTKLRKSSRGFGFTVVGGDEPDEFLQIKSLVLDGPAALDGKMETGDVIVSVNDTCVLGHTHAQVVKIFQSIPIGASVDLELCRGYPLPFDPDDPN

[8] = target: T6, GST-KIAA1634 PDZ domain 2 (Homo sapiens (Human)), Q5TCQ9
T6 chain: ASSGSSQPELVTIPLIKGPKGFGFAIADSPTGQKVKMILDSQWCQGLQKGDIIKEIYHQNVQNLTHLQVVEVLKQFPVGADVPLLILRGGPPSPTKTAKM

[9] = target: T7, GST-PTPL1 PDZ domain 2 (Homo sapiens (Human)), Q12923
T7 chain: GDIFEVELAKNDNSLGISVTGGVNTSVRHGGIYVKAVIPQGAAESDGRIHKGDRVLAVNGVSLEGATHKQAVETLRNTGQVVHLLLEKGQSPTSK

[10] = target: GST-DLG1 PDZ domain 1 (Homo sapiens), Q12959
[11] = target: GST-BAI-1 Associated Protein PDZ domain 5 (Homo sapiens (Human)), Q96QZ7
GST-BAI-1 Associated Protein PDZ domain 5 (Homo sapiens (Human)), Q96QZ7, sequence (Q96QZ7 988-1099): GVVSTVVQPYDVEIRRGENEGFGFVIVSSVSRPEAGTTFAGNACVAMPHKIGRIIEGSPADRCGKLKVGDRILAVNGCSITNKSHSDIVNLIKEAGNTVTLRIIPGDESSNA

[12] = target: T8, GST-MUPP1 PDZ domain 10 (Homo sapiens (Human)), O75970
T8 chain: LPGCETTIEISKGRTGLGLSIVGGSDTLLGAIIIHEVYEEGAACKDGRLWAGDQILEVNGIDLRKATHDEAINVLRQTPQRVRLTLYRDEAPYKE

[13] = target: T9, GST-INADL PDZ domain 8 (Homo sapiens (Human)), Q8NI35
T9 chain: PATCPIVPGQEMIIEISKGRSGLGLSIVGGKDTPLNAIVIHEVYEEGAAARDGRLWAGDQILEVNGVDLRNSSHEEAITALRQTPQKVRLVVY

[14] = target: GST-PSD95 PDZ domain 1 (Homo sapiens)
[15] = target: T10, GST-Outer Membrane PDZ domain 1 (Homo sapiens (Human)), P57105
T10 chain: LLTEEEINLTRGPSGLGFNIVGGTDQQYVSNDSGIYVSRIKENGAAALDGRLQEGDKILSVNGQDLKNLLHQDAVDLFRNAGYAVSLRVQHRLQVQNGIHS

[16] = target: GST-KIAA1634 PDZ domain 1 (Homo sapiens (Human)), Q5TCQ9
GST-KIAA1634 PDZ domain 1 (Homo sapiens (Human)), Q5TCQ9, sequence (Q5TCQ9 401-502): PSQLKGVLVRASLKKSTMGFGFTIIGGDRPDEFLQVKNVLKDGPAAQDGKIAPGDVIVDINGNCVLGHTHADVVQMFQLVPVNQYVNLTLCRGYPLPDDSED

[17] = target: GST-KIAA807 [GST: P08515]
GST-KIAA807 [GST: P08515], sequence (P08515 whole entry, the tested form may be a part): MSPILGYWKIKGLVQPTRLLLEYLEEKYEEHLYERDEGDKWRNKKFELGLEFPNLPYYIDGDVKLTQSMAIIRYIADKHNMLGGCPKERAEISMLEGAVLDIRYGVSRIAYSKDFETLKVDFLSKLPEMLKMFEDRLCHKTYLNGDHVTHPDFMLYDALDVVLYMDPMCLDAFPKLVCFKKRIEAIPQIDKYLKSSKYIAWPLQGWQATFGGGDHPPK

[18] = target: T11, GST-NeDLG PDZ domains 1, 2, Q92796
T11 chain: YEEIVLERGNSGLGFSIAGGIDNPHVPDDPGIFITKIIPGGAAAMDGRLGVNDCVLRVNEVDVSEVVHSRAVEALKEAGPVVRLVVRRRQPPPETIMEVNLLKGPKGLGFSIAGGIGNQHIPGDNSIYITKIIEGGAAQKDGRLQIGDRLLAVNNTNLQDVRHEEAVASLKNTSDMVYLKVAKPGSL

[19] = target: T12, GST-MINT1 PDZ domains 1, 2, Q02410
T12 chain: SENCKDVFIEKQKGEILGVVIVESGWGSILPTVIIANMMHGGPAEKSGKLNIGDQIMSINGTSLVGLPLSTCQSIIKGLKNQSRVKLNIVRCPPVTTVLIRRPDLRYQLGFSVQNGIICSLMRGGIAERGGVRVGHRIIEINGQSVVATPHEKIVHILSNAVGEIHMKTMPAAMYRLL

[20] = target: T13, GST-MUPP1 PDZ domain 13 (Homo sapiens (Human)), O75970
T13 chain: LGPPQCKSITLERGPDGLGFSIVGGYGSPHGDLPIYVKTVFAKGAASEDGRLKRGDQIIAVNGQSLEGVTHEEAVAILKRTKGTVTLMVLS

[21] = target: T14, GST-FLJ 10324 PDZ domain 1 [GST: P08515]
T14 chain: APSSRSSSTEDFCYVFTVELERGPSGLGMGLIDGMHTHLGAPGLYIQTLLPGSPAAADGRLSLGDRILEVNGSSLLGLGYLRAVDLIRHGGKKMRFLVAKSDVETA

[22] = target: GST-BAI-1 Associated Protein PDZ domain 4 (Homo sapiens (Human)), Q96QZ7
GST-BAI-1 Associated Protein PDZ domain 4 (Homo sapiens (Human)), Q96QZ7, sequence (Q96QZ7 other isoform, or with tags, fused parts or gaps): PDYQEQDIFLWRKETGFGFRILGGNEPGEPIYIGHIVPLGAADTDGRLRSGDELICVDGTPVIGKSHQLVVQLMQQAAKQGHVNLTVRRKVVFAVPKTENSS

[23] = target: T15, GST-KIAA0807(S) PDZ domain 1 (Homo sapiens (Human)), Q6P0Q8
T15 chain: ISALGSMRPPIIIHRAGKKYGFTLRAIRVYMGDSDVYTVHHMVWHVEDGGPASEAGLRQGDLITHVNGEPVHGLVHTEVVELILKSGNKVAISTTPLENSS

[24] = target: T16, GST-X-11 beta PDZ domain 2 (Rattus norvegicus (Rat)), O35431
T16 chain: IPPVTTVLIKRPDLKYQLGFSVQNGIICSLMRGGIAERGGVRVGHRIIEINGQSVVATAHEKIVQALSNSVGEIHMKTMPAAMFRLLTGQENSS

[25] = target: T17, GST-PTPL1 PDZ domain 4 (Homo sapiens (Human)), Q12923
T17 chain: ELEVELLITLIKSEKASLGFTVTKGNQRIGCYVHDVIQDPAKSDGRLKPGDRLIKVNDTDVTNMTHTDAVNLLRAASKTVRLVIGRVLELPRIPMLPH

[26] = target: T18, GST-MINT1 PDZ domain 2 (Mus musculus (Mouse)), B2RUJ5
T18 chain: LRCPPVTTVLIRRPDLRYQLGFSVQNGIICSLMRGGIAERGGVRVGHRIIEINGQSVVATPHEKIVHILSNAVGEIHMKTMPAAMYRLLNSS

[27] = target: T19, GST-ZO-2 PDZ domain 2 (Homo sapiens (Human)), Q9UDY2
T19 chain: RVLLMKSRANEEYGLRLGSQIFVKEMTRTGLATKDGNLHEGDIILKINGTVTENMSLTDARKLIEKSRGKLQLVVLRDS

[28] = target: T20, GST-ZO-1 PDZ domain 2 (Rattus norvegicus (Rat)), A0A0G2
T20 chain: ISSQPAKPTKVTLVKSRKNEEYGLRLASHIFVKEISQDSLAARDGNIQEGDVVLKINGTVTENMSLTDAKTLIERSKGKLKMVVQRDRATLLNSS

[29] = target: GST-KIAA0147 PDZ domain 1 (Homo sapiens (Human)), Q14160
GST-KIAA0147 PDZ domain 1 (Homo sapiens (Human)), Q14160, sequence (Q14160 other isoform, or with tags, fused parts or gaps): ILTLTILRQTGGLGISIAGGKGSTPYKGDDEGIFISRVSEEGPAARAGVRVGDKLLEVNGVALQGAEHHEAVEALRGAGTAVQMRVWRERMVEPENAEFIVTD

[30] = target: GST-DLG1 PDZ domains 1, 2 (Homo sapiens), Q12959
[31] = target: T21, GST-DLG2 PDZ domain 2 (Homo sapiens (Human)), Q15700
T21 chain: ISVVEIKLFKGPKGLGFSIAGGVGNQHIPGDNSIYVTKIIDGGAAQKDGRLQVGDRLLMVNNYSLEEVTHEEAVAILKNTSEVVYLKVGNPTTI

[32] = target: T22, GST-HEMBA 1003117 PDZ domain 1 (Homo sapiens (Human)), Q96JH8
T22 chain: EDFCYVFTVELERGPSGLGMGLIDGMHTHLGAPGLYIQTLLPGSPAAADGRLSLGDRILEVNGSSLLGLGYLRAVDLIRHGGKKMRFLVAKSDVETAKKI

[33] = target: T23, GST-ZO-2 PDZ domain 1 (Homo sapiens (Human)), Q9UDY2
T23 chain: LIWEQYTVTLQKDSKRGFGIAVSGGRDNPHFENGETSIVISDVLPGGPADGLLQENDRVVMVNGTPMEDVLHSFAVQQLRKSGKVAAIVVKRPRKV

[34] = target: GST-PIST PDZ domain 1 (Mus musculus (Mouse)), Q8BH60
[35] = target: T24, GST-MUPP1 PDZ domain 11 (Homo sapiens (Human)), O75970
T24 chain: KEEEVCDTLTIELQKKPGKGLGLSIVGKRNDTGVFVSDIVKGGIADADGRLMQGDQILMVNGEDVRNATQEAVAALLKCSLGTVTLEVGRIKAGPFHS

[36] = target: T25, GST-AF6 PDZ domain 1 (Homo sapiens (Human)), P55196
T25 chain: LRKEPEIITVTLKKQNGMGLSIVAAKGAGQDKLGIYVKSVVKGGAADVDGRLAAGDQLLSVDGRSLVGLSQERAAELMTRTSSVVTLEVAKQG

[37] = target: T26, GST-TIP1 PDZ domain 1 (Table 9 insert) (Homo sapiens (Human)), O14907
T26 chain: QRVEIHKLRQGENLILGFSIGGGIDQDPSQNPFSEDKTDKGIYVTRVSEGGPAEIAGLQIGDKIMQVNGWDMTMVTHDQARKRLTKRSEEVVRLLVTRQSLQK

[38] = target: T27, GST-ZO-1 PDZ domain 1 (Rattus norvegicus (Rat)), A0A0G2
T27 chain: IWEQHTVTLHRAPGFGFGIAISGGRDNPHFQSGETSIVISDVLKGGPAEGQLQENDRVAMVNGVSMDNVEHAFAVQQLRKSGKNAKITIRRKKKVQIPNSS
Note: key of the grades not given here.

Row | Binder | Classification [1] [A450 class] | Classification [2] [A450 class] | Classification [3] [A450 class] | Classification [4] [A450 class] | Classification [5] [A450 class] | Classification [12] [A450 class] | Classification [16] [A450 class] | Classification [17] [A450 class] | Classification [18] [A450 class] | Classification [19] [A450 class] | Classification [21] [A450 class] | Classification [23] [A450 class] | Classification [25] [A450 class] | Classification [30] [A450 class] | other results
1 | B1 | 1 | 1 | – | – | – | – | – | – | – | – | – | – | – | – | –
2 | B2 | – | – | 2 | 1 | 1 | 1 | 1 | 1 | 2 | 1 | 1 | – | – | – | Classification [6]: 1 A450 class; Classification [7]: 1 A450 class; Classification [8]: 1 A450 class; Classification [9]: 1 A450 class; Classification [10]: 1 A450 class; Classification [11]: 1 A450 class; Classification [13]: 1 A450 class; Classification [14]: 1 A450 class; Classification [15]: 1 A450 class; Classification [20]: 1 A450 class
3 | B3 | – | 1 | – | – | – | 1 | – | 1 | – | 1 | – | 1 | 1 | – | Classification [22]: 1 A450 class; Classification [24]: 1 A450 class; Classification [26]: 1 A450 class
4 | B4 | – | – | – | – | – | – | – | – | – | – | – | – | – | – | Classification [27]: 1 A450 class; Classification [28]: 2 A450 class
5 | B5 | 1 | – | 2 | 2 | 1 | – | 4 | – | 2 | – | – | 1 | – | 2 | Classification [29]: 1 A450 class; Classification [31]: 1 A450 class
6 | B6 | – | – | – | – | – | – | – | – | – | – | 1 | – | 1 | 1 | Classification [32]: 1 A450 class; Classification [33]: 1 A450 class; Classification [34]: 1 A450 class; Classification [35]: 1 A450 class; Classification [36]: 1 A450 class; Classification [37]: 1 A450 class; Classification [38]: 1 A450 class
